B1: cPK3 (Arabidopsis thaliana) (protein)
chain: MSNIDIEGILKELPNDGRTPKTKIVCTLGPASRSVTMIEKLLKAGMNVARFNFSHGSHEYHQETLDNLRTAMQNTGILAAVMLDTKGPEIRTGFLKDGNPIQLKEGQEITITTDYDIKGDEKTISMSYKKLPVDVKPGNTILCADGSISLAVVSCDPNAGTVICRCENTAMLGERKNVNLPGVVVDLPTLTDKDVEDILKWGVPNNIDMIALSFVRKGSDLVNVRKVLGSHSKSIMLMSKVENQEGVLNFDEILRETDAFMVARGDLGMEIPIEKIFLAQKMMIYKCNLAGKPVVTATQMLESMIKSPRPTRAEATDVANAVLDGTDCVMLSGESAAGAYPEIAVKTMAKICIEAESSLDYNTIFKEMIRATPLPMSTLESLASSAVRTANKAKAKLIIVLTRGGTTAKLVAKYRPAVPILSVVVPVFTSDTFNWSCSDESPARHSLIYRGLIPVLGEGSAKATDSESTEEIIESALKSATEKGLCNHGDAVVALHRIGAASVIKICVVK
notes: printed locus At5g56350 duplicates cPK2 (apparent misprint); primer begins MSNIDIE, unlike cPK2; full-length cDNA in pET16b, N-terminal His tag (6x/5x), E. coli BLR21, Ni-NTA
B2: cPK1 (Arabidopsis thaliana) (protein)
chain: MSNIDIEGILKELPNDGRIPKTKIVCTLGPASRTVSMIEKLLKAGMNVARFNFSHGSHEYHQETLDNLRSAMHNTGILAAVMLDTKGPEIRTGFLKDGNPIQLKEGQEITITTDYDIQGDESTISMSYKKLPLDVKPGNTILCADGSISLAVLSCDPESGTVRCRCENSAMLGERKNVNLPGVVVDLPTLTDKDIEDILGWGVPNSIDMIALSFVRKGSDLVNVRKVLGSHAKSIMLMSKVENQEGVINFDEILRETDAFMVARGDLGMEIPIEKIFLAQKLMIYKCNLAGKPVVTATQMLESMIKSPRPTRAEATDVANAVLDGTDCVMLSGESAAGAYPEIAVKVMAKICIEAESSLDYNTIFKEMIRATPLPMSPLESLASSAVRTANKARAKLIIVLTRGGSTANLVAKYRPAVPILSVVVPVMTTDSFDWSCSDESPARHSLIYRGLIPMLAEGSAKATDSEATEVIIEAALKSATQRGLCNRGDAIVALHRIGAASVIKICVVK
notes: full-length cDNA in pET16b, N-terminal His tag (6x in Results, 5x in Methods), E. coli BLR21, Ni-NTA; primer begins MSNIDIEG
B3: cPK2 (Arabidopsis thaliana) (protein)
chain: MAMIEQRPKTKIVCTLGPASRSVPMVEKLLRAGMNVARFNFSHGSHEYHQETLDNLHQAMLNTGILCAVMLDTKGPEIRTGFLKDGKPIQLKQGQEITISTDYDLKGDENTICMSYKKLAVDVNPGMVILCADGTISLLVLSCDKENGTVRCRCENSAMLGERKNVNLPGVVVDLPTLTEKDKEDIMQWGVPNQIDMIALSFVRKGSDLVQVRKLLGKHAKNILLMSKVENQEGVANFDDILVNSDAFMIARGDLGMEIPIEKIFLAQKVMIYKCNIQGKPVVTATQMLESMIKSPRPTRAEATDVANAVLDGTDCVMLSGETAAGAYPELAVRTMAKICVEAESTLDYGDVFKRIMLYSPVPMSPLESLASSAVRTANSARATLIMVLTRGGSTARLVAKYRPGMPILSVVVPEIKTDFFDWSCSDESPARHSLIFRGLIPVLYAGSARASHDESTEEAIEFATQYGKEKELCKTGDSVVALLRVGNASVIKILTVK
notes: full-length cDNA in pET16b, N-terminal His tag (6x in Results, 5x in Methods), E. coli BLR21, Ni-NTA; primer begins MAMIEQ
B4: cPK4 (Arabidopsis thaliana) (protein)
chain: MHSSHLLLEEPIRMTSILEPSKSSFFPALTKIVGTLGPKSRSVEVIAGCLKAGMSVARFDFSWCDADYHQETLENLKIAVKSTKKLCAVMLDTVGPELQVINKTEKAISLKADGLVTLTPSQDQEASSEVLPINFDGLAKAVKKGDTIFVGQYLFTGSETTSVWLEVEEVKGDDVICISRNAATLGGPLFTLHVSQVHIDMPTLTEKDKEVISTWGVQNKIDFLSLSYCRHAEDVRQARELLNSCGDLSQTQIFAKIENEEGLTHFDEILQEADGIILSRGNLGIDLPPEKVFLFQKAALYKCNMAGKPAVLTRVVDSMTDNLRPTRAEATDVANAVLDGSDAILLGAETLRGLYPVETISTVGRICCEAEKVFNQDLFFKKTVKYVGEPMTHLESIASSAVRAAIKVKASVIICFTSSGRAARLIAKYRPTMPVLSVVIPRLTTNQLKWSFSGAFEARQSLIVRGLFPMLADPRHPAESTSATNESVLKVALDHGKQAGVIKSHDRVVVCQKVGDASVVKIIELED
notes: full-length cDNA in pET16b, N-terminal His tag (6x in Results, 5x in Methods), E. coli BLR21, Ni-NTA; primer begins MHSSHL

Experiments:
purified protein [1] = substrate: C=C(OP(=O)(O)O)C(=O)O; assay: purified protein; assay type: biochemical, Arabidopsis thaliana; conditions: co-substrate ADP, 10 mM MgCl2, 50 mM KCl, 5% PEG 200, pH 7.5, 25 °C
purified protein [2] = substrate: Nc1ncnc2c1ncn2[C@@H]1O[C@H](COP(=O)(O)OP(=O)(O)O)[C@@H](O)[C@H]1O; assay: purified protein; assay type: biochemical, Arabidopsis thaliana; conditions: co-substrate PEP, 10 mM MgCl2, 50 mM KCl, 5% PEG 200, pH 7.5, 25 °C

Row | Protein | Km (purified protein [1]) [µM] | kcat (purified protein [1]) [s⁻¹] | Km (purified protein [2]) [µM] | kcat (purified protein [2]) [s⁻¹]
1 | B1 | 170 | 2.4 | 140 | 2.4
2 | B2 | 60 | 1.53 | 150 | 1.53
3 | B3 | 760 | 3.05 | 30 | 3.05
4 | B4 | 170 | 4.0 | 70 | 4.0

Reference: publication PMC7154858, “Transcriptional and Biochemical Characterization of Cytosolic Pyruvate Kinases in Arabidopsis thaliana” (Plants, 2020)
